6 molecules from US20020123082A1 (NEW YORK UNIVERSITY, published 2002) can be followed below.

Non-standard residues stand in square brackets, D forms with d. No end group written: not given here. pT = C[C@@H](OP(=O)(O)O)[C@H](N)C(=O)O

B4: phospho-p27 peptide NAGSVEQT*PKKPGLRRRQT (peptide)
peptide: NAGSVEQ[pT]PKKPGLRRRQT
notes: Coupled to Sepharose beads; 19 C-terminal residues of p27; also called phospho-T187 p27 peptide; p27 phosphopeptide

One experiment deals with human Cul2 (endogenous) (human, UniProt Q13617 1-745, limits assumed). The experiment can be described thus: anti-Flag co-immunoprecipitation from transfected HeLa cells, anti-Cul2 immunoblot. The text has this:
(§1) HeLa cells were transfected with mammalian expression plasmids encoding Flag-tagged versions of FBP1 (lane 1), (ΔF)FBP1 (lane 2), FBP4 (lane 3), FBP7 (lane 5), FBP2 (lane 7), (ΔF)FBP2 (lane 8), FBP3a (lane 9), (ΔF)FBP3a (lane 10), or with an empty vector (lanes 4 and 6). Cells were lysed and extracts were subjected to immunoprecipitation with a rabbit anti-Flag antibody (lanes 1-8). Immunoprecipitates were then immunoblotted with a mouse anti-Cul1 monoclonal antibody, a rabbit anti-Skp1 polyclonal antibody or a rabbit anti-Cul2 polyclonal antibody, as indicated. The last lane contains 25 μg of extracts from non-transfected HeLa cells; […] contains recombinant Cul1, Skp1, or Cul2 proteins used as markers.
In general terms: A western blot detects proteins with antibodies after separation by electrophoresis.

The target of experiment [1] is B4. The experiment can be described thus: in vitro translated 35S-FBP on phospho-p27 peptide Sepharose beads, RIPA wash, autoradiography. The procedure: (§2) FIG. 37A-C. […] Beads were washed with RIPA buffer and bound proteins were eluted and subjected to electrophoresis and autoradiography (Upper Panel). Bottom Panel: 10% of the in vitro translated [35S]FBP inputs. […] Beads were washed with RIPA buffer and bound proteins were immunoblotted with antibodies to the proteins indicated on the left of each panel. A portion of the HeLa extract (25 μg) was used as a control (lane 4). […] C. […] Beads were washed with RIPA buffer and bound proteins subjected to electrophoresis and autoradiography.

The target in another experiment is His-tagged Elongin C (human, UniProt Q15369 1-112). The experiment can be described thus: pull-down of in vitro translated 35S-FBP on His-Elongin C Nickel-agarose beads. The procedure: FIG. 29. FBPs interact specifically with Skp1 through their F-box. The cDNAs of FBPs (wild type and mutants) were transcribed and translated in vitro (IVT) in the presence of 35S- methionine. […] Bound IVT proteins were analyzed by SDS-PAGE and autoradiography. The arrows on the left side of the panels point to the indicated FBPs. The apparent molecular weights of the protein standards are indicated on the right side of the panels.
As examples of the human FBP family, a more detailed characterization of some FBPs was performed. To confirm the specificity of interaction between the novel FBPs and human Skp1, eight in vitro translated FBPs were tested for binding to His-tagged-Skp1 pre-bound to Nickel-agarose beads. As a control Elongin C was used, the only known human Skp1 homolog.

A further experiment deals with T1, human Cul1 (endogenous) (human, UniProt Q13616 1-776).
T1 construct: A slower migrating form is said to be likely modified by a ubiquitin-like molecule
Kind of experiment: anti-Flag co-immunoprecipitation from transfected HeLa cells, anti-Cul1 immunoblot.
Excerpt: as §1

Experiment [2] concerns the target T2, human F-box protein FBP3a (human, UniProt Q9UKT7 1-428).
T2 sequence: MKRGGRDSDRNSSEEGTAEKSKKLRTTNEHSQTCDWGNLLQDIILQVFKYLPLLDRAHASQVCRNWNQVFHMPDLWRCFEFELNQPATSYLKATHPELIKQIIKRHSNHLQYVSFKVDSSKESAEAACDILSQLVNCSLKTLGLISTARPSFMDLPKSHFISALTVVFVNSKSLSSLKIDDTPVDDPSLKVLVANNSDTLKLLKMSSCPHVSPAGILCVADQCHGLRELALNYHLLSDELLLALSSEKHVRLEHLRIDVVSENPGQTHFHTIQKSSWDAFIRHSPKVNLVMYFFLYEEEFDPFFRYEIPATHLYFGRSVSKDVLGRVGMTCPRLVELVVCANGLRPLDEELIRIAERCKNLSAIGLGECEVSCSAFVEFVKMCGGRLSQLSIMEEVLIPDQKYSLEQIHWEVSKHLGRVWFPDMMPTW
The experiment can be described thus: in vitro translated 35S-FBP on phospho-p27 peptide Sepharose beads, RIPA wash, autoradiography. The procedure:
as §2

In another experiment the target is T3, human F-box protein FBP5 (human, UniProt Q9UKT4 1-447).
T3 construct: Gal4 AD fusion in the two-hybrid screen; the clone appeared to be full length
T3 sequence: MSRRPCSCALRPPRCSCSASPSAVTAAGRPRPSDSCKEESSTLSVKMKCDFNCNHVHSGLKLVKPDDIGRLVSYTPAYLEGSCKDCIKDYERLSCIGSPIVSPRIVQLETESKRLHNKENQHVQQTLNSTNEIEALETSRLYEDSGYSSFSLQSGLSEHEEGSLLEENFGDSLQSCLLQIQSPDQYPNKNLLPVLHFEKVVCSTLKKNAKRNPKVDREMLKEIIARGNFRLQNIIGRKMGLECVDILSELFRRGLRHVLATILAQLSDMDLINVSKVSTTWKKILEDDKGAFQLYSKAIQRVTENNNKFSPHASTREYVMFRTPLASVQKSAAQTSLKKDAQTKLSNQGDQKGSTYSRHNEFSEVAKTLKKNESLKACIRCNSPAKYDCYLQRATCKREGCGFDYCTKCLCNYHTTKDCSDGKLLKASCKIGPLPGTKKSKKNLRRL
The description is as above. The procedure: as §2

The target of the next experiment is T4, human F-box protein FBP1 (human, UniProt Q9Y297 1-605).
T4 sequence: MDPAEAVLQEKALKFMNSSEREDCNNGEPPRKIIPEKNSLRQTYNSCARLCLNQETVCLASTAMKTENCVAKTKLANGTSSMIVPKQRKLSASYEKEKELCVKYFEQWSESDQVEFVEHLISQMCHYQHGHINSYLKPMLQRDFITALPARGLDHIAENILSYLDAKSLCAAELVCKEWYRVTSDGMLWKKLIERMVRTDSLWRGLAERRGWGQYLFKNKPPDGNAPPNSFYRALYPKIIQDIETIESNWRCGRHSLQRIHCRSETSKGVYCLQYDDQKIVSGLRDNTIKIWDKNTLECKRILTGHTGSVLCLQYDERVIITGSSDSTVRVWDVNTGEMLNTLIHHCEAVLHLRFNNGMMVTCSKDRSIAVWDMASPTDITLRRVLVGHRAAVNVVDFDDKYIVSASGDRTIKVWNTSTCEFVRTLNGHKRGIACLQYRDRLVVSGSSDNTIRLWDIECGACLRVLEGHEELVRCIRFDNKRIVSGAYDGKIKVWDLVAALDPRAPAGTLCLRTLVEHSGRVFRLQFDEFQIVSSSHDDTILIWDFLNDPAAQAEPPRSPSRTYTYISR
The description is as above. The procedure:
as §2

The next experiment deals with T5, human F-box protein FBP2 (human, UniProt Q9UKT8 1-419, limits assumed).
T5 sequence: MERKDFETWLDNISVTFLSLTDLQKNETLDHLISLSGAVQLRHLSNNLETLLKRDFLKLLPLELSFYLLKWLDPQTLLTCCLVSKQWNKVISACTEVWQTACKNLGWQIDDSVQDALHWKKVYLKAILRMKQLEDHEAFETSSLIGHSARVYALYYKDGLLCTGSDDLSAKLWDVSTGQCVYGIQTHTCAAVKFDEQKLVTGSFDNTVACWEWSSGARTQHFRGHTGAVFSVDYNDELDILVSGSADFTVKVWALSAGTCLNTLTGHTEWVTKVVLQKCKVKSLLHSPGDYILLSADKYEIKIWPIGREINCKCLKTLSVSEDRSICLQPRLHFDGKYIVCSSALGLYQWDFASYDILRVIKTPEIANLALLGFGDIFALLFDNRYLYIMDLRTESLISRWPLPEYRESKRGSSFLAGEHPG
The experiment is described as above. The procedure:
as §2

T1 sequence (Q13616 whole entry): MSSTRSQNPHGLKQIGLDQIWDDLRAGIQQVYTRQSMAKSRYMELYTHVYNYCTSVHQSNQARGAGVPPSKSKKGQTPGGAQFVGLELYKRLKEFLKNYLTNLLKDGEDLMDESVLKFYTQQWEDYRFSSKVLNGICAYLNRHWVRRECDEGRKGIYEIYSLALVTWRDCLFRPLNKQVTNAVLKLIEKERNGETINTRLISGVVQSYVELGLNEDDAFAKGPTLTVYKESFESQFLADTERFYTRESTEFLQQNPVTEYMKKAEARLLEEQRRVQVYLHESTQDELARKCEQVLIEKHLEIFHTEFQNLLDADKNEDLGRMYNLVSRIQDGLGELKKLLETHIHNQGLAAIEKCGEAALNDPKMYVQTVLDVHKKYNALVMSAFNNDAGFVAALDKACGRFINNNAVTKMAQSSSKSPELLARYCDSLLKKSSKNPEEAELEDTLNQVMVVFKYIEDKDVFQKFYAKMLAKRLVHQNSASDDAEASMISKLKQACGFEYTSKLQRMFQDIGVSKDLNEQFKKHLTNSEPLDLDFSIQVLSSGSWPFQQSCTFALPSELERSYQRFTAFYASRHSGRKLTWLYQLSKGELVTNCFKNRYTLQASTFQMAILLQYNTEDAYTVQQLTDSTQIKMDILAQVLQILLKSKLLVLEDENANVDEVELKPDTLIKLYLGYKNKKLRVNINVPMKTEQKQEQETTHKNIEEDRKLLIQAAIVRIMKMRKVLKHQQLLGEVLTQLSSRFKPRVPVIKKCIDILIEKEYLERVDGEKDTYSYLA
Chain of human Cul2 (endogenous) (Q13617 whole entry): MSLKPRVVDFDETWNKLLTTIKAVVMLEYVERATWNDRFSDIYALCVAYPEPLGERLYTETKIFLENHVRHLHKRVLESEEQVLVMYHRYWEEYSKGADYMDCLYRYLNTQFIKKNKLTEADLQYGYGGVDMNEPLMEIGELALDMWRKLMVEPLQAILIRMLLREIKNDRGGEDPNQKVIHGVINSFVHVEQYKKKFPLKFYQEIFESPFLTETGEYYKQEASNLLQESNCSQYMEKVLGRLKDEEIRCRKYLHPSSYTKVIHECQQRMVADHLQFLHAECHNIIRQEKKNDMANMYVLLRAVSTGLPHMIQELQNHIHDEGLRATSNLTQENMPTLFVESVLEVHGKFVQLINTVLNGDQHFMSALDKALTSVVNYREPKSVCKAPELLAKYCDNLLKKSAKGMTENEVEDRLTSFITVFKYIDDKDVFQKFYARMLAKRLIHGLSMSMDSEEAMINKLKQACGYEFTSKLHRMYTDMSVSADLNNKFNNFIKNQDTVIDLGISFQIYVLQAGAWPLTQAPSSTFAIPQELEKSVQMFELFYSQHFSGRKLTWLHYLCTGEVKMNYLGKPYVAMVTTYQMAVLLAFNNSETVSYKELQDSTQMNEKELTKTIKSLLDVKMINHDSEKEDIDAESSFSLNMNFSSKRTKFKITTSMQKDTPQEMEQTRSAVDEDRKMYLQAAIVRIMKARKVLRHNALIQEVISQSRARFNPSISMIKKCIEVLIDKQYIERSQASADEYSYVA
Chain of His-tagged Elongin C (Q15369 whole entry): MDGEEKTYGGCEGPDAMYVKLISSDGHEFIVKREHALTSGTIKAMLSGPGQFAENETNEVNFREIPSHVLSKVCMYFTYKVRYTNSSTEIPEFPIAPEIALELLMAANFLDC

B1: Flag-tagged FBP7 (other, not shown: small tags and cut ends)
chain: MSNTRFTITLNYKDPLTGDEETLASYGIVSGDLICLILHDDIPPPNIPSSTDSEHSSLQNNEQPSLATSSNQTSIQDEQPSDSFQGQAAQSGVWNDDSMLGPSQNFEAESIQDNAHMAEGTGFYPSEPLLCSESVEGQVPHSLETLYQSADCSDANDALIVLIHLLMLESGYIPQGTEAKALSLPEKWKLSGVYKLQYMHHLCEGSSATLTCVPLGNLIVVNATLKINNEIRSVKRLQLLPESFICKEKLGENVANIYKDLQKLSRLFKDQLVYPLLAFTRQALNLPNVFGLVVLPLELKLRIFRLLDVRSVLSLSAVCRDLFTASNDPLLWRFLYLRDFRDNTVRVQDTDWKELYRKRHIQRKESPKGRFVLLLPSSTHTIPFYPNPLHPRPFPSSRLPPGIIGGEYDQRPTLPYVGDPISSLIPGPGETPSQLPPLRPRFDPVGPLPGPNPILPGRGGPNDRFPFRPSRGRPTDGRLSFM
notes: Expressed in HeLa cells
For B1, the binding result in the experiment with human Cul2 (endogenous) is recorded as “no binding”.

B2: human F-box protein FBP7 (other)
chain: MSNTRFTITLNYKDPLTGDEETLASYGIVSGDLICLILHDDIPPPNIPSSTDSEHSSLQNNEQPSLATSSNQTSIQDEQPSDSFQGQAAQSGVWNDDSMLGPSQNFEAESIQDNAHMAEGTGFYPSEPLLCSESVEGQVPHSLETLYQSADCSDANDALIVLIHLLMLESGYIPQGTEAKALSLPEKWKLSGVYKLQYMHHLCEGSSATLTCVPLGNLIVVNATLKINNEIRSVKRLQLLPESFICKEKLGENVANIYKDLQKLSRLFKDQLVYPLLAFTRQALNLPNVFGLVVLPLELKLRIFRLLDVRSVLSLSAVCRDLFTASNDPLLWRFLYLRDFRDNTVRVQDTDWKELYRKRHIQRKESPKGRFVLLLPSSTHTIPFYPNPLHPRPFPSSRLPPGIIGGEYDQRPTLPYVGDPISSLIPGPGETPSQLPPLRPRFDPVGPLPGPNPILPGRGGPNDRFPFRPSRGRPTDGRLSFM
B2: the binding result (in experiment [1]; in the experiment with His-tagged Elongin C) was “no binding” throughout.

B3: Flag-tagged (ΔF)FBP2 (other, not shown: small tags and cut ends)
chain: MERKDFETWLDNISVTFLSLTDLQKNETLDHLISLSGAVQLRHLSNNLETLLKRDFLKLCKNLGWQIDDSVQDALHWKKVYLKAILRMKQLEDHEAFETSSLIGHSARVYALYYKDGLLCTGSDDLSAKLWDVSTGQCVYGIQTHTCAAVKFDEQKLVTGSFDNTVACWEWSSGARTQHFRGHTGAVFSVDYNDELDILVSGSADFTVKVWALSAGTCLNTLTGHTEWVTKVVLQKCKVKSLLHSPGDYILLSADKYEIKIWPIGREINCKCLKTLSVSEDRSICLQPRLHFDGKYIVCSSALGLYQWDFASYDILRVIKTPEIANLALLGFGDIFALLFDNRYLYIMDLRTESLISRWPLPEYRESKRGSSFLAGEHPG
notes: pcDNA3 construct, Flag tag at the C-terminus; also called Flag-tagged (deltaF)FBP2
For the molecule B3, the binding result with human Cul1 (endogenous) is given as “no binding”.
On to B4, for which the binding result (in experiment [2]; with human F-box protein FBP5; with human F-box protein FBP1; with human F-box protein FBP2) was “no binding” each time.

B5: Flag-tagged (ΔF)FBP3a (other, not shown: small tags and cut ends)
chain: MKRGGRDSDRNSSEEGTAEKSKKLRTTNEHSQTCDWGNLRCFEFELNQPATSYLKATHPELIKQIIKRHSNHLQYVSFKVDSSKESAEAACDILSQLVNCSLKTLGLISTARPSFMDLPKSHFISALTVVFVNSKSLSSLKIDDTPVDDPSLKVLVANNSDTLKLLKMSSCPHVSPAGILCVADQCHGLRELALNYHLLSDELLLALSSEKHVRLEHLRIDVVSENPGQTHFHTIQKSSWDAFIRHSPKVNLVMYFFLYEEEFDPFFRYEIPATHLYFGRSVSKDVLGRVGMTCPRLVELVVCANGLRPLDEELIRIAERCKNLSAIGLGECEVSCSAFVEFVKMCGGRLSQLSIMEEVLIPDQKYSLEQIHWEVSKHLGRVWFPDMMPTW
notes: pcDNA3 construct, Flag tag at the C-terminus; also called Flag-tagged (deltaF)FBP3a
As for B5, in the experiment with human Cul1 (endogenous), the binding result is listed as “no binding”.

B6: Flag-tagged (ΔF)FBP1 (other, not shown: small tags and cut ends)
chain: MDPAEAVLQEKALKFMNSSEREDCNNGEPPRYRVTSDGMLWKKLIERMVRTDSLWRGLAERRGWGQYLFKNKPPDGNAPPNSFYRALYPKIIQDIETIESNWRCGRHSLQRIHCRSETSKGVYCLQYDDQKIVSGLRDNTIKIWDKNTLECKRILTGHTGSVLCLQYDERVIITGSSDSTVRVWDVNTGEMLNTLIHHCEAVLHLRFNNGMMVTCSKDRSIAVWDMASPTDITLRRVLVGHRAAVNVVDFDDKYIVSASGDRTIKVWNTSTCEFVRTLNGHKRGIACLQYRDRLVVSGSSDNTIRLWDIECGACLRVLEGHEELVRCIRFDNKRIVSGAYDGKIKVWDLVAALDPRAPAGTLCLRTLVEHSGRVFRLQFDEFQIVSSSHDDTILIWDFLNDPAAQAEPPRSPSRTYTYISR
notes: pcDNA3 construct, Flag tag at the C-terminus; also called Flag-tagged (deltaF)FBP1
Turning to B6, in the experiment with human Cul1 (endogenous), the binding result is reported as “no binding”.
